Results reported in PMC12403130, “A β-cap on the FliPQR protein-export channel acts as the cap for initial flagellar rod assembly” (Proceedings of the National Academy of Sciences of the …, 2025).

Target: the molecule itself
Experiment: cryo-EM structure; FliP, FliQ and FliR-His co-expressed in Salmonella SJW1368, complex solubilised with LMNG, purified and reconstituted in a peptidisc; single-particle analysis, C1 symmetry, 3.0 Å, closed form

B1: FliP (natural protein)
chain: QLPGLISQPLAGGGQSWSLSVQTLVFITSLTFLPAILLMMTSFTRIIIVFGLLRNALGTPSAPPNQVLLGLALFLTFFIMSPVIDKIYVDAYQPFSEQKISMQEALDKGAQPLRAFMLRQTREADLALFARLANSGPLQGPEAVPMRILLPAYVTSELKTAFQIGFTIFIPFLIIDLVIASVLMALGMMMVPPATIALPFKLMLFVLVDGWQLLMGSLAQSFYS
notes: FliP, Salmonella enterica serovar Typhimurium; signal peptide (residues 1 to 21) cleaved between Ala-21 and Gln-22 during membrane insertion; the mature protein begins at Gln-22; Five copies of FliP stand in the FliP5-FliQ4-FliR1 complex; also called mature FliP; FliP^1; source: membranes solubilised with 1% LMNG; reconstituted in a peptidisc
  stoichiometry N: 5
